The text below walks through data of publication PMC13083842 (Communications Biology, 2026).

Some results are limits rather than exact numbers.

The target of one experiment is T1, interleukin-6 (IL-6) (human, UniProt P05231).
T1 construct: interleukin-6, human; A biotinylated IL-6 was used in the cell uptake assays; for SPR and ELISA the IL-6 was amine-coupled or coated
The experiment can be described thus: SPR; IL-6 amine-coupled on a CM5 chip (Biacore T200); analytes in multi-cycle kinetics, 0.39 to 100 nM, 30 µL/min, 180 s association, 1200 s dissociation, HBS-N + 10 mM CaCl2; global fit, 1:1 model; where koff was below the detection limit KD was estimated from kon and the theoretical maximum koff. To be noted: both partners purified.

For experiment [1], the target named is T2, soluble IL-6 receptor (sIL-6R) (human (from the printed accession …, UniProt P08887)).
T2 construct: interleukin-6 receptor (IL-6R), soluble variant, residues 20-355, UniProt P08887; Two versions were made: 1; C-terminal His9-Tag; 2; C-terminal Twin-Strep-Tag, 3xGS-Linker and TEV cleavage site; Only the ELISA on sASGPR (anti-His-HRP detection) tells that the His9 version was used; Strongly and heterogeneously glycosylated; also called wild-type sIL-6R; unmodified sIL-6R; source: Expi293F, …
The experiment can be described thus: SPR; IL-6R amine-coupled on a CM5 chip (Biacore T200); tocilizumab variants as analytes, multi-cycle kinetics, 0.39 to 100 nM; global fit, 1:1 model. To be noted: both partners purified. For orientation: Surface plasmon resonance follows binding to a sensor surface in real time, without labels.

T1 sequence (P05231 30-212): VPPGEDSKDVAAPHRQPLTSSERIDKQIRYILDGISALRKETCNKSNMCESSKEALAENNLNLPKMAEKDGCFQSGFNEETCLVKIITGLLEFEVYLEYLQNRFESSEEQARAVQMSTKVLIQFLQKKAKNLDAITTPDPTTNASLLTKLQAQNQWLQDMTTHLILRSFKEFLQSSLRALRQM

B1: siltuximab (antibody, V domains shown)
VH: EVQLVESGGKLLKPGGSLKLSCAASGFTFSSFAMSWFRQSPEKRLEWVAEISSGGSYTYYPDTVTGRFTISRDNAKNTLYLEMSSLRSEDTAMYYCARGLWGYYALDYWGQGTSVTVSS
VL: QIVLIQSPAIMSASPGEKVTMTCSASSSVSYMYWYQQKPGSSPRLLIYDTSNLASGVPVRFSGSGSGTSYSLTISRMEAEDAATYYCQQWSGYPYTFGGGTKLEIK
notes: heavy chain of siltuximab, chimeric (human-murine) anti-IL-6 antibody; light chain of siltuximab; Full-length IgG; also called wildtype siltuximab; unmodified siltuximab; source: HEK293T, transfected, purified from supernatant (Protein A, SEC); copies: 2 + 2
By Kd is commonly meant the free concentration of one partner at which half of the binding sites on the other are occupied at equilibrium, for simple one-to-one binding. The term koff denotes a measure of how fast the partners let go of each other. By kon is commonly meant the rate constant with which the complex forms. On to B1, for which, in the experiment with interleukin-6 (IL-6), the equilibrium dissociation constant (Kd) is under 0.045 nM, the dissociation rate constant (koff) was under 1e-05 s⁻¹ and the kon is 445000 M⁻¹ s⁻¹.

B2: siltuximab-TGN 1:10 (antibody, V domains shown)
VH: EVQLVESGGKLLKPGGSLKLSCAASGFTFSSFAMSWFRQSPEKRLEWVAEISSGGSYTYYPDTVTGRFTISRDNAKNTLYLEMSSLRSEDTAMYYCARGLWGYYALDYWGQGTSVTVSS
VL: QIVLIQSPAIMSASPGEKVTMTCSASSSVSYMYWYQQKPGSSPRLLIYDTSNLASGVPVRFSGSGSGTSYSLTISRMEAEDAATYYCQQWSGYPYTFGGGTKLEIK
notes: as the heavy chain of m1; as the light chain of m1; Heterogeneous conjugate; See m1 for the DrugBank ids; also called TGN-modified siltuximab variant 1:10; source: HEK293T, transfected, purified (Protein A, SEC), then conjugated with Tris-GalNAc-PEG5-sulfo-NHS ester at 1:10; copies: 2 + 2
On to B2, for which, in the experiment with interleukin-6 (IL-6), the equilibrium dissociation constant (Kd) is under 0.045 nM and the koff is under 1e-05 s⁻¹.

B3: siltuximab-TGN 1:25 (antibody, V domains shown)
VH: EVQLVESGGKLLKPGGSLKLSCAASGFTFSSFAMSWFRQSPEKRLEWVAEISSGGSYTYYPDTVTGRFTISRDNAKNTLYLEMSSLRSEDTAMYYCARGLWGYYALDYWGQGTSVTVSS
VL: QIVLIQSPAIMSASPGEKVTMTCSASSSVSYMYWYQQKPGSSPRLLIYDTSNLASGVPVRFSGSGSGTSYSLTISRMEAEDAATYYCQQWSGYPYTFGGGTKLEIK
notes: as the heavy chain of m1; as the light chain of m1; Heterogeneous conjugate; See m1 for the DrugBank ids; also called the 1:25 variant; source: HEK293T, transfected, purified (Protein A, SEC), then conjugated with Tris-GalNAc-PEG5-sulfo-NHS ester at 1:25; copies: 2 + 2
For the molecule B3, in the experiment with interleukin-6 (IL-6), the dissociation constant Kd is under 0.045 nM, the koff was under 1e-05 s⁻¹ and the on-rate (kon) is 221000 M⁻¹ s⁻¹.

B4: siltuximab-TGN 1:5 (antibody, V domains shown)
VH: EVQLVESGGKLLKPGGSLKLSCAASGFTFSSFAMSWFRQSPEKRLEWVAEISSGGSYTYYPDTVTGRFTISRDNAKNTLYLEMSSLRSEDTAMYYCARGLWGYYALDYWGQGTSVTVSS
VL: QIVLIQSPAIMSASPGEKVTMTCSASSSVSYMYWYQQKPGSSPRLLIYDTSNLASGVPVRFSGSGSGTSYSLTISRMEAEDAATYYCQQWSGYPYTFGGGTKLEIK
notes: as the heavy chain of m1; as the light chain of m1; Heterogeneous conjugate; See m1 for the DrugBank ids; also called TGN-modified siltuximab variant 1:5; source: HEK293T, transfected, purified (Protein A, SEC), then conjugated with Tris-GalNAc-PEG5-sulfo-NHS ester at 1:5; copies: 2 + 2
As for B4, in the experiment with interleukin-6 (IL-6), the dissociation constant (Kd) was under 0.045 nM and the koff was under 1e-05 s⁻¹.

B5: siltuximab-TGN 1:1 (antibody, V domains shown)
VH: EVQLVESGGKLLKPGGSLKLSCAASGFTFSSFAMSWFRQSPEKRLEWVAEISSGGSYTYYPDTVTGRFTISRDNAKNTLYLEMSSLRSEDTAMYYCARGLWGYYALDYWGQGTSVTVSS
VL: QIVLIQSPAIMSASPGEKVTMTCSASSSVSYMYWYQQKPGSSPRLLIYDTSNLASGVPVRFSGSGSGTSYSLTISRMEAEDAATYYCQQWSGYPYTFGGGTKLEIK
notes: as the heavy chain of m1; as the light chain of m1; Heterogeneous conjugate; See m1 for the DrugBank ids; also called TGN-modified siltuximab variant 1:1; source: HEK293T, transfected, purified (Protein A, SEC), then conjugated with Tris-GalNAc-PEG5-sulfo-NHS ester at 1:1; copies: 2 + 2
As for B5, in the experiment with interleukin-6 (IL-6), the dissociation constant Kd is under 0.045 nM and the koff was under 1e-05 s⁻¹.

B6: tocilizumab-TGN 1:25 (antibody, V domains shown)
VH: QVQLQESGPGLVRPSQTLSLTCTVSGYSITSDHAWSWVRQPPGRGLEWIGYISYSGITTYNPSLKSRVTMLRDTSKNQFSLRLSSVTAADTAVYYCARSLARTTAMDYWGQGSLVTVSS
VL: DIQMTQSPSSLSASVGDRVTITCRASQDISSYLNWYQQKPGKAPKLLIYYTSRLHSGVPSRFSGSGSGTDFTFTISSLQPEDIATYYCQQGNTLPYTFGQGTKVEIK
notes: as the heavy chain of m6; as the light chain of m6; Heterogeneous conjugate; See m6 for the DrugBank ids; also called the 1:25 variant; source: HEK293T, transfected, purified (Protein A, SEC), then conjugated with Tris-GalNAc-PEG5-sulfo-NHS ester at 1:25
Consider B6, for which the “fold weaker affinity than wildtype tocilizumab” value in experiment [1] is at most 5 fold.
